T1: IL-6Rα on HEK-Blue IL-6 cells (human, UniProt P08887 20-468)
T1 sequence (looked up): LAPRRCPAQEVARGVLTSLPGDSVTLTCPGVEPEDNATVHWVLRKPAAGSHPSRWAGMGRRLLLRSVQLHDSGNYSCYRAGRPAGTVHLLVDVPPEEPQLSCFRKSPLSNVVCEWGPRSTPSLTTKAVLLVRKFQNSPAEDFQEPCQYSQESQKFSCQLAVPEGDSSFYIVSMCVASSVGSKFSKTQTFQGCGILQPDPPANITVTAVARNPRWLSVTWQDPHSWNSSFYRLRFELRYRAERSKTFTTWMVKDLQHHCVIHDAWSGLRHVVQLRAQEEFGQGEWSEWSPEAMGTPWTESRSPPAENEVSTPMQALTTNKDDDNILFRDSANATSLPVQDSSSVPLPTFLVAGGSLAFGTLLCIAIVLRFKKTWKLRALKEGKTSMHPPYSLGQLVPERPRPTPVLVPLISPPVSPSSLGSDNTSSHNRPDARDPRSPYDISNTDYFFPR

T2: gp130 on HEK-Blue IL-6 cells (human, UniProt P40189 23-918)
T2 sequence: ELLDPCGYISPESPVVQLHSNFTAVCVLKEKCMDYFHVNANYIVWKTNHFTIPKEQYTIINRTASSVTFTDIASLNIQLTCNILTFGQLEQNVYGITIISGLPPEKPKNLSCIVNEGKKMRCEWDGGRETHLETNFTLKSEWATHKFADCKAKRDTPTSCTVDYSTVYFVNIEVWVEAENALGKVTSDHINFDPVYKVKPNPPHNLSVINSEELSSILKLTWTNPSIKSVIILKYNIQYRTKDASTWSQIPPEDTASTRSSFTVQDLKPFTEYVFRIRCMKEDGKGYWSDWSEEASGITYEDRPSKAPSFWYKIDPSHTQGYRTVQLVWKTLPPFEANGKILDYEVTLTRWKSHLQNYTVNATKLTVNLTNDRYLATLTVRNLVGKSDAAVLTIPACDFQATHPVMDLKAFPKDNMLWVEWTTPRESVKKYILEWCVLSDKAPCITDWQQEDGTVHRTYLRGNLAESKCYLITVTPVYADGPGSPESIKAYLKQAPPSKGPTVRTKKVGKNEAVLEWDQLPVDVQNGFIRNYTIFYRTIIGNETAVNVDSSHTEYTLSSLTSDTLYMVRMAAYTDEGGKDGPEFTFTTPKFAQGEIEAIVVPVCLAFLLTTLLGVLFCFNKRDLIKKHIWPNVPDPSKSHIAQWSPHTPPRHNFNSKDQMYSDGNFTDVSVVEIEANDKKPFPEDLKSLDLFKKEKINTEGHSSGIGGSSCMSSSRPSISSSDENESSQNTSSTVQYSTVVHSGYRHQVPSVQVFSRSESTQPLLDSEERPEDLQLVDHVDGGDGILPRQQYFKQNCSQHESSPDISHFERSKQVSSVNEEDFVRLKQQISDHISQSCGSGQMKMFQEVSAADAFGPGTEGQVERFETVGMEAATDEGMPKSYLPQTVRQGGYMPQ

B1: RDB1503 (ligand)
chain: QNQWLQDMTTHLILRSFKEFLQSSLRALRQMSGGSGGGSSERIDKQIRYILDGISALRKETCNKSNMCESSKEALAENNLNLPKMAEKDGCFQSGFNEETCLVKIITGLLEFEVYLEYLQNRFESSEEQARAVQMSTKVLIQFLQKKAKNLDAITTPDPTTNASLLTKLQ

How the values were obtained:
[1] = target: T1, IL-6Rα on HEK-Blue IL-6 cells; test: cell-based or functional assay
[2] = target: T2, gp130 on HEK-Blue IL-6 cells; test: cell-based or functional assay

Molecule | EC50, IL-6-induced SEAP reporter in HEK-Blue IL-6 cells (agonist activity) [1] | EC50, IL-6-induced SEAP reporter in HEK-Blue IL-6 cells (agonist activity) [2]
IL-6 (from UniProt P05231 30-212) (ligand) | 1 pM | –
B1 | ~0.6 pM | ~0.6 pM

From US20130336924A1 (ALKERMES, published 2013)
